Experimental data: PMC2528183

T1: ttRecR (Thermus thermophilus, UniProt Q5SHY0 1-194)
T1 sequence: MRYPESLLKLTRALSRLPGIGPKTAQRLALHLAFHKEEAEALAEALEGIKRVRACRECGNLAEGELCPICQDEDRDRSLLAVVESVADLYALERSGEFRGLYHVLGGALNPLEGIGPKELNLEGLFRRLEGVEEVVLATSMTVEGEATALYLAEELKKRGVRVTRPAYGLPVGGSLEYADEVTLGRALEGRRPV

T2: ttRecF (Thermus thermophilus, UniProt Q5SLM9 1-343)
T2 sequence: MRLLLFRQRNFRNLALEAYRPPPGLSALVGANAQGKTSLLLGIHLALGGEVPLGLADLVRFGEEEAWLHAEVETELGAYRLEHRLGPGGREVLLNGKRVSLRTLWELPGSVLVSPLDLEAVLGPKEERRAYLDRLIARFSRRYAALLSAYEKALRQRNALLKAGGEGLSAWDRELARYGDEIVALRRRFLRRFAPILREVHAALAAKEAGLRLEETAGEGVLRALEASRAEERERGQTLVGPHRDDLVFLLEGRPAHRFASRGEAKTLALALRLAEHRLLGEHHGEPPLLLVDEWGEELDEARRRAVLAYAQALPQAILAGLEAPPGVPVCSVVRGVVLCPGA

T3: ttRecF;ttRecR (Thermus thermophilus;Thermus …, UniProt Q5SLM9;Q5SHY0 1-343;1-194, |)
T3 sequence 1: T2 sequence
T3 sequence 2: T1 sequence

B1: 70 bp dsDNA (dsDNA)
DNA 1: GCGATCCTTATTAAAACGGCAACTCCTCCTCCGGCGGAAAGTCTTCCAAGCCTTCGTCAATGTCCACCCC
DNA 2: GGGGTGGACATTGACGAAGGCTTGGAAGACTTTCCGCCGGAGGAGGAGTTGCCGTTTTAATAAGGATCGC

Legend:
[1] = target: Thermus thermophilus RecR (ttRecR), wild type (Thermus thermophilus); assay: SAXS
[2] = target: Thermus thermophilus RecF (ttRecF) (Thermus thermophilus); assay: SAXS
[3] = target: Thermus thermophilus RecR (ttRecR), wild type (Thermus thermophilus); assay: SAXS; remark: listed apart in the source
[4] = target: Thermus thermophilus RecR (ttRecR), wild type (Thermus thermophilus); assay: SEC
[5] = target: T1, ttRecR; assay: EMSA
[6] = target: T2, ttRecF; assay: EMSA
[7] = target: T3, ttRecF;ttRecR; assay: EMSA

Molecule | stoichiometry N [1] | N, ttRecF chains in the complex [2] | N, ttRecR chains in the complex [2] | stoichiometry N [3] | stoichiometry N [4] | binding result [5] | binding result [6] | binding result [7]
Thermus thermophilus RecR (ttRecR), wild type (natural protein) | 4 | 2 | 4 | 2 | 2 |  |  | 
B1 |  |  |  |  |  | no binding | binds | binds
